{"source": "paper PMC4360655", "key": {"[1]": {"tested_on": "P15381", "experiment": "FRET or BRET; living tsA-201 cells expressing CaV1.2-EGFP (donor) and CaV1.2-tagRFP (acceptor), confocal; FRETr = RFPg/GFPg; followed during flash photolysis of caged Ca2+ at −80 mV, during a 500-ms depolarization from −80 to +10 mV (10 mM EGTA in the pipette), and at 0-5000 nM Ca2+ with 1 μM …"}, "[2]": {"target": "CaV1.2 channel pore-forming subunit (α1c) tagged at its C-terminus with a half of split Venus (CaV1.2-VN155(I152L) and CaV1.2-VC155) (rabbit) (UniProt P15381)"}}}
{"substance": "CaV1.2 channel pore-forming subunit (α1c) tagged at its C-terminus with EGFP or tagRFP (CaV1.2-EGFP and CaV1.2-tagRFP)", "values": [{"measurement": "time for FRETr to decay to 50% of the peak (T50%), with m5", "setting": "[1]", "result": "0.63 ± 0.23", "unit": "s for FRETr"}]}
{"substance": "CaV1.2 channel pore-forming subunit (α1c) tagged at its C-terminus with a half of split Venus (CaV1.2-VN155(I152L) and CaV1.2-VC155) (from UniProt P15381 1-2171) (natural protein)", "values": [{"measurement": "CaV1.2 sparklet density after against before the depolarization that fuses CaV1.2-VN and CaV1.2-VC", "setting": "[2]", "result": 10, "unit": "fold"}]}
